According to patent publication US20210364527A1 (QUANTUM SI, published 2021):
Primed or numbered codes have the meaning given here. Ends that are not written are not given here. FITC′ = not defined here

Experiments:
[1] = target: T1, IR peptide IRKLDEESILKQK (XXKLDEESILKQK, XX = IR); test: biolayer interferometry
T1 construct: Biolayer interferometry
T1 peptide: IRKLDEESILKQK

[2] = target: T2, IQ peptide IQKLDEESILKQK (XXKLDEESILKQK, XX = IQ); test: biolayer interferometry
T2 construct: Biolayer interferometry
T2 peptide: IQKLDEESILKQK

[3] = target: T3, VR peptide VRKLDEESILKQK (XXKLDEESILKQK, XX = VR); test: biolayer interferometry
T3 construct: Biolayer interferometry
T3 peptide: VRKLDEESILKQK

[4] = target: T4, FITC-labeled FA peptide FAKLDEESILKQK-FITC; test: fluorescence polarization, single point
T4 peptide: FAKLDEESILKQK-{FITC′}

[5] = target: T5, FITC-labeled YA peptide YAKLDEESILKQK-FITC; test: fluorescence polarization, single point
T5 peptide: YAKLDEESILKQK-{FITC′}

[6] = target: T6, FITC-labeled WA peptide WAKLDEESILKQK-FITC; test: fluorescence polarization, single point
T6 peptide: WAKLDEESILKQK-{FITC′}

[7] = target: T7, LA peptide LAKLDEESILKQK (XAKLDEESILKQK, X = L); test: biolayer interferometry as in Example 12
T7 construct: Immobilized on the biolayer interferometry sensor
T7 peptide: LAKLDEESILKQK

[8] = target: T8, IA peptide IAKLDEESILKQK (XAKLDEESILKQK, X = I); test: biolayer interferometry as in Example 12
T8 construct: Immobilized on the biolayer interferometry sensor
T8 peptide: IAKLDEESILKQK

[9] = target: T9, VA peptide VAKLDEESILKQK (XAKLDEESILKQK, X = V); test: biolayer interferometry as in Example 12
T9 construct: Immobilized on the biolayer interferometry sensor
T9 peptide: VAKLDEESILKQK

[10] = target: T10, F peptide FAKLDEESILKQK (XAKLDEESILKQK, X = F); test: biolayer interferometry as in Example 12
T10 construct: Immobilized on the biolayer interferometry sensor
T10 peptide: FAKLDEESILKQK

[11] = target: T11, Y peptide YAKLDEESILKQK (XAKLDEESILKQK, X = Y); test: biolayer interferometry, peptide immobilized on the sensor, 30 C
T11 construct: Immobilized on the biolayer interferometry sensor
T11 peptide: YAKLDEESILKQK

[12] = target: T12, W peptide WAKLDEESILKQK (XAKLDEESILKQK, X = W); test: as above
T12 construct: Immobilized on the biolayer interferometry sensor
T12 peptide: WAKLDEESILKQK

[13] = target: T13, FITC-labeled LA peptide LAKLDEESILKQK-FITC; test: fluorescence polarization, FITC-peptide with ClpS:streptavidin complex, 23 C
T13 peptide: LAKLDEESILKQK-{FITC′}

[14] = target: T14, FITC-labeled IA peptide IAKLDEESILKQK-FITC; test: as above
T14 peptide: IAKLDEESILKQK-{FITC′}

[15] = target: T15, FITC-labeled VA peptide VAKLDEESILKQK-FITC; test: as above
T15 peptide: VAKLDEESILKQK-{FITC′}

I (IAWLVK) = target: T16, I (IAWLVK); test: dynamic sequencing of EFIAWLVK with PS610, PS372, hTET and pfuTET
T16 chain: IAWLVK

Measured: binding result

B1: PS372 (ClpS homolog) (other)
chain: MAFPARGKTAPKNEVRRQPPYNVILLNDDDHTYRYVIEMLQKIFGFPPEKGFQIAEEVDRTGRVILLTTSKEHAELKQDQVHSYGPDPYLGRPCSGSMTCVIEPAV
notes: also called PS372-Bt; PS372-Bt-mPEG4
no binding: [3] | [4] | [5] | [6] | [10] | [11] | [12]
binds: all other assays above
